From patent US20230348578A1 (BETH ISRAEL DEACONESS MEDICAL CENTER, published 2023)
Residue numbers refer to the chain shown, from its start.

B1: Cis-mAb HT18 (humanized) (antibody, V domains shown)
VH: QVQLVQSGAEVKKPGSSVKVSCKASGYTFTSYWIHWVRQAPGQGLEWMGVIDPSDSYTRYNQKFKGRVTITRDTSMSTAYTELSSLRSEDTAVYYCTTWEVDYWGQGTLVTVSS
VL: DIQMTQSPSTLSASVGDRVTITCRSSQSLVHSDGNTYLHWYQQKPGKAPKLLIYKVSNRFSGVPSRFSGSGSGTEFTLTISSLQPDDFATYYCSQSTHVPWTFGQGTKLEIK
B2: Cis-mAb HT13 (mouse-human chimera, control) (antibody, V domains shown)
VH: QVQLQQPGAELVKPGASVKMSCKASGYTFTSYWIHWVKQRPGQGLEWIGVIDPSDSYTRYNQKFKGKATLTVDTSSSTAYMQLSSLTSEDSAVYYCTTWEVDYWGQGTTLTVSS
VL: DVVMTQTPLSLPVSLGDQASISCRSSQSLVHSDGNTYLHWYLQKPGQSPKLLIYKVSNRFSGVPDRFSGSGSGTDFTLKISRLEAEDLGVYFCSQSTHVPWTFGGGTKLEIK
B3: Cis-mAb HT3 (humanized) (antibody, V domains shown)
VH: B1 VH with S16A, A40R, M48I, I70L, R72V, M76A, T81M
VL: B2 VL with T7S, S14T, D17Q, Q18P, K50Q, L83V, L88V, L109V
B4: Cis-mAb HT8 (humanized) (antibody, V domains shown)
VH: B1 VH with S16A, A40R, M48I, M76A, T81M
VL: B2 VL with T7S, S14T, D17Q, Q18P, K50Q, F60D, L83V, L88V, L109V
B5: Cis-mAb HT2 (humanized) (antibody, V domains shown)
VH: B1 VH with S16A, V20M, R38K, A40R, M48I, V68A, I70L, R72V, M76A, T81M
VL: B2 VL with T7S, S14T, D17Q, Q18P, K50Q, L83V, L88V, L109V
B6: Cis-mAb HT1 (humanized) (antibody, V domains shown)
VH: B2 VH with Q5V, P7S, V12K, K67R, S76A, L110V
VL: B2 VL with T7S, S14T, D17Q, Q18P, K50Q, L83V, L88V, L109V
B7: Cis-mAb HT10 (humanized) (antibody, V domains shown)
VH: B1 VH with S16A, V20M, R38K, A40R, M48I, V68A, I70L, R72V, M76A, T81M
VL: B2 VL with T7S, S14T, D17Q, Q18P, K50Q, L83V, L88V, F92Y, L109V

target: cis P-tau in cultured neurons stressed by hypoxia; assay: cell-based or functional assay

Binder	Cis P-tau elimination
B1	0.8 relative (HT13 = 1.0)
B2	1 relative (HT13 = 1.0)
B3	1.6 relative (HT13 = 1.0)
B4	0.9 relative (HT13 = 1.0)
B5	1.5 relative (HT13 = 1.0)
B6	1.7 relative (HT13 = 1.0)
B7	0.9 relative (HT13 = 1.0)
